In article PMC9279676, “ERK2 MAP kinase regulates SUFU binding by multisite phosphorylation of GLI1” (Life Science Alliance, 2022):

Tests used:
[1] = molecular target: T1, GST-GLI1_(68-232), wild type, phosphorylated by ERK2 (human, UniProt P08151-1 68-232, phosphorylated by ERK2 to ∼3 mol phosphate per mole; most efficient sites Ser116 and Ser130, followed by Ser102 and Ser201); assay: pull-down; purified GST-GLI1_(68-232) variants (mock treated or ERK2 phosphorylated), 0 or 1.25-80 nM, on glutathione-Sepharose beads; ∼1 pmol 35S-SUFU in 200 μl; 15 min at 30°C, then 1 h at room temperature; Binding Buffer (20 mM Tris-HCl pH 7.5, 125 mM KOAc, 0.5 mM EDTA, 5 mM DTT, 0.1% Tween20, 12.5% glycerol) + 1 mg/ml BSA; bound SUFU quantified by SDS-PAGE and Phosphorimager; Kd from binding isotherms; conditions: one partner purified
T1 construct: vector pGEX-LB; also called ERK2-phosphorylated GLI1; WT + ERK2; source: bacteria, purified (glutathione-Sepharose); then phosphorylated with purified active ERK2 (2 h, 30°C)
T1 sequence (looked up): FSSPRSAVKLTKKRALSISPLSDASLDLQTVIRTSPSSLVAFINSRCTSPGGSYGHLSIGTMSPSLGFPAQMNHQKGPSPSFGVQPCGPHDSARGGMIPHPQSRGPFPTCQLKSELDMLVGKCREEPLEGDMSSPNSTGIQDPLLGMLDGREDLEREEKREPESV

[2] = molecular target: T2, GST-GLI1^S116, phosphorylated by ERK2 (human, UniProt P08151-1 68-232, S70A | S86A | S102A | S130A | S146A | S201A, phosphorylated by ERK2; only intact SP site S116); assay: as above; conditions: one partner purified
T2 construct: only the SP site S116 intact; also called ERK2-treated GLI1^S116; source: bacteria, purified (glutathione-Sepharose); then phosphorylated with purified active ERK2
T2 sequence (looked up): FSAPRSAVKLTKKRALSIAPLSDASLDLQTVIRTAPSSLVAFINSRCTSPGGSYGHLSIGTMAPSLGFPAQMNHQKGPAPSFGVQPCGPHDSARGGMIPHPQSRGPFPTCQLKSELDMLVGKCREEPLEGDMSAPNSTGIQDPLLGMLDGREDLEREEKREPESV

[3] = molecular target: T3, GST-GLI1^S130, phosphorylated by ERK2 (human, UniProt P08151-1 68-232, S70A | S86A | S102A | S116A | S146A | S201A, phosphorylated by ERK2; only intact SP site S130); assay: as above; conditions: one partner purified
T3 construct: only the SP site S130 intact; also called ERK2-treated GLI1^S130; source: bacteria, purified (glutathione-Sepharose); then phosphorylated with purified active ERK2
T3 sequence (looked up): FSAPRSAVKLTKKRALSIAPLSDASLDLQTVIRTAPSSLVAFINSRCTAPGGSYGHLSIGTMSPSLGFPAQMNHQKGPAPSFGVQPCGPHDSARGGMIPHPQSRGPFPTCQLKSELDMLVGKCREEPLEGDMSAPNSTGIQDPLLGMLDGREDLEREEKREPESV

[4] = molecular target: phosphorylated single and double-phosphosite mutants; assay: as above
[5] = molecular target: the three “two sites only”-intact mutants, ERK2-phosphorylated; assay: as above
[6] = molecular target: T4, GST-GLI1^S130, phosphorylated by ERK2 (human, UniProt P08151-1 68-232, S70A | S86A | S102A | S116A | S146A | S201A, phosphorylated by ERK2; only intact SP site S130); assay: GLI1 phosphorylated by ERK2
T4 sequence: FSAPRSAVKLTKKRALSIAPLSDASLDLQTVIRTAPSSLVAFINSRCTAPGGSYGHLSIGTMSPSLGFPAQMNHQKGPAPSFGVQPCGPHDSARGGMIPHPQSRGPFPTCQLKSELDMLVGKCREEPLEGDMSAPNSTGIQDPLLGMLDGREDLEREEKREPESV

[7] = molecular target: T5, GST-GLI1^S116, phosphorylated by ERK2 (human, UniProt P08151-1 68-232, S70A | S86A | S102A | S130A | S146A | S201A, phosphorylated by ERK2; only intact SP site S116); assay: GLI1 phosphorylated by ERK2
T5 sequence: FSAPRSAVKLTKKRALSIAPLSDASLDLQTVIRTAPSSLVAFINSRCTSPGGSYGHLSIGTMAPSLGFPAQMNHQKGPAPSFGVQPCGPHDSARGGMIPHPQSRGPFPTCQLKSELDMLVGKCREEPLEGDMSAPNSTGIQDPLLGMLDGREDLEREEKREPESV

[8] = molecular target: T6, GST-GLI1^S116,S130, phosphorylated by ERK2 (human, UniProt P08151-1 68-232, S70A | S86A | S102A | S146A | S201A, phosphorylated by ERK2; intact SP sites S116, S130); assay: GLI1 phosphorylated by ERK2
T6 sequence: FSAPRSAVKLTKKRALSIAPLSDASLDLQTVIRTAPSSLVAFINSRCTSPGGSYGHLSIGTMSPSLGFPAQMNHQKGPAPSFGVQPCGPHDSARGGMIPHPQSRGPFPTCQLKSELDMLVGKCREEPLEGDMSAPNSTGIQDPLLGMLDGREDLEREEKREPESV

[9] = molecular target: T7, GST-GLI1^S102,S116 (GST-GLI1_(68-232), only S102 and S116 intact), mock treated (human, UniProt P08151-1 68-232, S70A | S86A | S130A | S146A | S201A); assay: mock treated
T7 sequence: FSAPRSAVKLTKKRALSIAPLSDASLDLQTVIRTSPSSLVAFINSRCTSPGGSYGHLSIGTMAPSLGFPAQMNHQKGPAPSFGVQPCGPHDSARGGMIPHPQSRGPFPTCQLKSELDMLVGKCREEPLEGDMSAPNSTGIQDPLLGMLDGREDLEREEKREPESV

[10] = molecular target: T8, GST-GLI1^S116,S130 (GST-GLI1_(68-232), only S116 and S130 intact), mock treated (human, UniProt P08151-1 68-232, S70A | S86A | S102A | S146A | S201A); assay: mock treated
T8 sequence: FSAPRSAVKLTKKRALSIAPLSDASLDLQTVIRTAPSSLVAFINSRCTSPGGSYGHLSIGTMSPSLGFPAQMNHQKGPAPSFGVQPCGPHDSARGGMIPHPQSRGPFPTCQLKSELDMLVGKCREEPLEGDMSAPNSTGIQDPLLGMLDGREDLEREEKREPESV

- fold increase of Kd against unphosphorylated GLI1 [1]: ~30 fold
- fold weakening of Kd against unphosphorylated GLI1 [1]: > 30 fold
- fold increase of Kd upon phosphorylation [2]: 2.6 fold
- fold reduction in affinity after ERK2 treatment [3]: 1.3 fold
- Kd [4]: 53 nM
- fold increase of Kd after ERK2-mediated phosphorylation [5]: 4.8 to 8.3 fold
- Kd [6]: 16 nM
- Kd [7]: 36 nM
- Kd [8]: 53 nM
- Kd [9]: 6 nM
- Kd [10]: 11 nM
B1: full-length human SUFU protein, 35S-radiolabeled (natural protein, UniProt Q9UMX1-1 1-484, looked up)
chain: MAELRPSGAPGPTAPPAPGPTAPPAFASLFPPGLHAIYGECRRLYPDQPNPLQVTAIVKYWLGGPDPLDYVSMYRNVGSPSANIPEHWHYISFGLSDLYGDNRVHEFTGTDGPSGFGFELTFRLKRETGESAPPTWPAELMQGLARYVFQSENTFCSGDHVSWHSPLDNSESRIQHMLLTEDPQMQPVQTPFGVVTFLQIVGVCTEELHSAQQWNGQGILELLRTVPIAGGPWLITDMRRGETIFEIDPHLQERVDKGIETDGSNLSGVSAKCAWDDLSRPPEDDEDSRSICIGTQPRRLSGKDTEQIRETLRRGLEINSKPVLPPINPQRQNGLAHDRAPSRKDSLESDSSTAIIPHELIRTRQLESVHLKFNQESGALIPLCLRGRLLHGRHFTYKSITGDMAITFVSTGVEGAFATEEHPYAAHGPWLQILLTEEFVEKMLEDLEDLTSPEEFKLPKEYSWPEKKLKVSILPDVVFDSPLH
modifications: [35S]-methionine label
notes: human SUFU, full length, residues 1-484, from plasmid pGEM4Z-SUFU; also called 35S-SUFU; radiolabeled SUFU; source: in vitro transcription and translation (SP6, Promega), partially purified by ammonium sulfate precipitation
